Residue numbers refer to the chain shown, from its start.
T1: ZαADAR1 Y177A Y177A (Homo sapiens) (UniProt P55265)
T1 sequence: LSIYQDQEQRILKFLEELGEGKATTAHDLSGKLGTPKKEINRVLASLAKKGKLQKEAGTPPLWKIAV

T2: Zα domain of ADAR1 (hZαADAR1) (Homo sapiens) (UniProt P55265)
T2 sequence: T1 sequence with A45Y

T3: ZαADAR1 Y177F Y177F (Homo sapiens) (UniProt P55265)
T3 sequence: T1 sequence with A45F

T4: Zα domain of ADAR1 (hZαADAR1) (Homo sapiens, UniProt P55265 SEQ:1-67)
T4 sequence: T1 sequence with A45Y

T5: ZαADAR1 Q186A (Homo sapiens, UniProt P55265 SEQ:1-67, Q186A)
T5 sequence: T1 sequence with A45Y, Q54A

T6: ZαADAR1 E171A (Homo sapiens, UniProt P55265 SEQ:1-67, E171A)
T6 sequence: T1 sequence with E39A, A45Y

T7: Zβ domain of ADAR1 (hZβADAR1) (Homo sapiens, UniProt P55265 SEQ:1-62)
T7 sequence: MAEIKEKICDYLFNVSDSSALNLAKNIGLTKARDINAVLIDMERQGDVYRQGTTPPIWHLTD

B1: d(CG)6 (dsDNA)
DNA 1: CGCGCGCGCGCG
DNA 2: CGCGCGCGCGCG

Experiments:
[1] = target: T1, ZαADAR1 Y177A Y177A (Homo sapiens); assay: SPR; conditions: partial bromination (stabilises Z form); Z-DNA stabilised by bromination
[2] = target: T2, Zα domain of ADAR1 (hZαADAR1) (Homo sapiens); assay: SPR; conditions: partial bromination (stabilises Z form); Z-DNA stabilised by bromination
[3] = target: T3, ZαADAR1 Y177F Y177F (Homo sapiens); assay: SPR; conditions: partial bromination (stabilises Z form); Z-DNA stabilised by bromination
[4] = target: T4, Zα domain of ADAR1 (hZαADAR1); assay: CD at 255 nm; rapid, complete B-to-Z conversion; 90 uM bp DNA, 30 uM protein
ZαADAR1 Q186A = target: T5, ZαADAR1 Q186A; assay: CD at 255 nm; rate comparable to wild type
ZαADAR1 E171A = target: T6, ZαADAR1 E171A; assay: CD at 255 nm; rate comparable to wild type
[5] = target: T7, Zβ domain of ADAR1 (hZβADAR1); assay: CD at 255 nm; no change over time

| Molecule | Kd [1] [nM] | Kd [2] [nM] | Kd [3] [nM] | binding result [4] | binding result (ZαADAR1 Q186A) | binding result (ZαADAR1 E171A) | binding result [5] |
| --- | --- | --- | --- | --- | --- | --- | --- |
| partially brominated poly(dG-dC) | 700 | 40 | 350 | – | – | – | – |
| B1 | – | – | – | binds | binds | binds | no binding |

Source: patent publication US20030211964, “Method of inhibiting pathogenicity of infectious agents” (Massachusetts Institute of Technology, published 2003)
